Measurements reported in IntAct's records for PubMed 20818436.

B1: Zinc finger protein GLI1 (Homo sapiens), P08151 (parent)
chain: MFNSMTPPPISSYGEPCCLRPLPSQGAPSVGTEGLSGPPFCHQANLMSGPHSYGPARETNSCTEGPLFSSPRSAVKLTKKRALSISPLSDASLDLQTVIRTSPSSLVAFINSRCTSPGGSYGHLSIGTMSPSLGFPAQMNHQKGPSPSFGVQPCGPHDSARGGMIPHPQSRGPFPTCQLKSELDMLVGKCREEPLEGDMSSPNSTGIQDPLLGMLDGREDLEREEKREPESVYETDCRWDGCSQEFDSQEQLVHHINSEHIHGERKEFVCHWGGCSRELRPFKAQYMLVVHMRRHTGEKPHKCTFEGCRKSYSRLENLKTHLRSHTGEKPYMCEHEGCSKAFSNASDRAKHQNRTHSNEKPYVCKLPGCTKRYTDPSSLRKHVKTVHGPDAHVTKRHRGDGPLPRAPSISTVEPKREREGGPIREESRLTVPEGAMKPQPSPGAQSSCSSDHSPAGSAANTDSGVEMTGNAGGSTEDLSSLDEGPCIAGTGLSTLRRLENLRLDQLHQLRPIGTRGLKLPSLSHTGTTVSRRVGPPVSLERRSSSSSSISSAYTVSRRSSLASPFPPGSPPENGASSLPGLMPAQHYLLRARYASARGGGTSPTAASSLDRIGGLPMPPWRSRAEYPGYNPNAGVTRRASDPAQAADRPAPARVQRFKSLGCVHTPPTVAGGGQNFDPYLPTSVYSPQPPSITENAAMDARGLQEEPEVGTSMVGSGLNPYMDFPPTDTLGYGGPEGAAAEPYGARGPGSLPLGPGPPTNYGPNPCPQQASYPDPTQETWGEFPSHSGLYPGPKALGGTYSQCPRLEHYGQVQVKPEQGCPVGSDSTGLAPCLNAHPSEGPPHPQPLFSHYPQPSPPQYLQSGPYTQPPPDYLPSEPRPCLDFDSPTHSTGQLKAQLVCNYVQSQQELLWEGGGREDAPAQEPSYQSPKFLGGSQVSPSRAKAPVNTYGPGFGPNLPNHKSGSYPTPSPCHENFVVGANRASHRAAAPPRLLPPLPTCYGPLKVGGTNPSCGHPEVGRLGGGPALYPPPEGQVCNPLDSLDLDNTQLDFVAILDEPQGLSPPPSHDQRGSSGHTPPPSGPPNMAVGNMSVLLRSLPGETEFLNSSA

Variants of: B1
Conditions: with itch_human ITCH

Variant | effect of a mutation on the interaction
Y859F;Y872F;S1060A | disrupting interaction
